Reference: patent US6506379

Tests used:
[1] = target: His6-flag-FKBP, no drug added (ethanol alone) (human); assay: phage display affinity enrichment: FRAP(2015-2114) phagemids mixed with pBC control phagemids, 1 uM His6-flag-FKBP with ethanol alone, capture on Ni-NTA agarose, acid elution
[2] = target: His6-flag-FKBP in complex with FK506 (human); assay: phage display affinity enrichment: FRAP(2015-2114) phagemids mixed with pBC control phagemids, 1 uM His6-flag-FKBP plus about 1 uM FK506, capture on Ni-NTA agarose, acid elution
Sequence of His6-flag-FKBP in complex with FK506 (human) (chain, as listed by the source limits assumed): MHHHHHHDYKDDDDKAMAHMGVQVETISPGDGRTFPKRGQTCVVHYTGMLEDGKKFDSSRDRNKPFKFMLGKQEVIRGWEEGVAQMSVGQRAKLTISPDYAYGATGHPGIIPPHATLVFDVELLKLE

[3] = target: His6-flag-FKBP in complex with rapamycin (human); assay: phage display affinity enrichment: FRAP(2015-2114) phagemids mixed with pBC control phagemids, 1 uM His6-flag-FKBP plus about 1 uM rapamycin, capture on Ni-NTA agarose, acid elution
Sequence of His6-flag-FKBP in complex with rapamycin (human) (chain, as listed by the source limits assumed): as above

[4] = target: 1FRB-p65(361-550) (human) (UniProt P42345); assay: cell-based or functional assay
Sequence of 1FRB-p65(361-550) (human) (P42345 other isoform, or with tags, fused parts or gaps): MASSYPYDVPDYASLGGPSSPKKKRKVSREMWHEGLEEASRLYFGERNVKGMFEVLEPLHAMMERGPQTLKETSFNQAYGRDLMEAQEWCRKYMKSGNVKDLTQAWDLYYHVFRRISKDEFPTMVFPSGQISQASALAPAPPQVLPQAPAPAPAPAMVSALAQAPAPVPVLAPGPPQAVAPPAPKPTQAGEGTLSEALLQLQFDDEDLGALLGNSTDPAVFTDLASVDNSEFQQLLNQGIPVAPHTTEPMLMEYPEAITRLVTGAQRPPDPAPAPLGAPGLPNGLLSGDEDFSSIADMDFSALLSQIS

Sequence of His6-flag-FKBP, no drug added (ethanol alone) (human) (chain, as listed by the source limits assumed): as the sequence (chain, as listed by the source limits assumed) above

With “FRAP (amino acids 2015-2114) displayed on filamentous phagemid particles, from p-CANTAB-AP-FRAP(2015-2114) (from UniProt P03661 215-424)” the fold enrichment of FRAP phage compared to the starting mixture (carb/chlor cfu ratio) [1] was 1.5 fold, the fold enrichment of FRAP phage compared to the starting mixture (carb/chlor cfu ratio) [2] was 2.4 fold and the fold enrichment of FRAP phage compared to the starting mixture (carb/chlor cfu ratio) [3] was 271 fold.

Substance “ZFHD1-3FKBP in complex with rapamycin (from UniProt P62942 1-107)” has an SEAP activity of the stable clone at 100 nM rapamycin, extended assay (mock transfected cells 47 units) (arbitrary fluorescence units) [4] greater than 90000, an SEAP secretion, transiently transfected HT1080 cells (ZFHD1-site SEAP reporter); lowest rapamycin concentration with detectable SEAP [4] of 0.5 nM and an SEAP secretion, transiently transfected HT1080 cells; rapamycin concentration at peak SEAP [4] of 5 nM.

“ZFHD1-3FKBP, no drug (from UniProt P62942 1-107)” showed an SEAP activity of the stable clone without rapamycin, extended assay (mock transfected cells 47 units) (arbitrary fluorescence units) [4] of 54.
